Experimental data reported in patent US9677045B2, “Microorganisms and methods for production of 4-hydroxybutyrate, 1,4-butanediol and related compounds” (priority 2012, dated 2017).

Legend:
[1] = test system: BCKA in Bacillus subtilis; conditions: decarboxylation; cited from earlier work
[2] = biological target: T1, phosphotransbutyrylase (PTB) (Clostridium acetobutylicum, UniProt P58255); experiment: PTB enzyme activity, butyryl-CoA to butyryl-phosphate (DTNB); format: biochemical; conditions: extracts of cells with native ptb/bk operon (0020, 0021) in pZA33
T1 construct: made in house; host or cells: E. coli, plasmid pZA33-0020-0021, cell extract
T1 sequence (P58255 1-301): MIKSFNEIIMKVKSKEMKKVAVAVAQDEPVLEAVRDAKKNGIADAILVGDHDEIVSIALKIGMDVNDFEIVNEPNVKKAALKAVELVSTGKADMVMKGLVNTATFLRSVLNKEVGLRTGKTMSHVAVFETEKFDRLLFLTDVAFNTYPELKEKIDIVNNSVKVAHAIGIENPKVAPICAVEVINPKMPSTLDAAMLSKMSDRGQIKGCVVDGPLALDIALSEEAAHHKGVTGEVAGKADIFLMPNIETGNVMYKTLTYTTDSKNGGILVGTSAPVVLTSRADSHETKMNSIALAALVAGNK
Description: The enzyme activity of PTB is measured in the direction of butyryl-CoA to butyryl-phosphate as described in Cary et al. J. Bacteriol. 170:4613-4618 (1988). It provides inorganic phosphate for the conversion, and follows the increase in free CoA with the reagent 5,5′-dithiobis-(2-nitrobenzoic acid), or DTNB. DTNB rapidly reacts with thiol groups such as free CoA to release the yellow-colored 2-nitro-5-mercaptobenzoic acid (TNB), which absorbs at 412 nm with a molar extinction coefficient of 14,140 M cm^−1. The assay buffer contained 150 mM potassium phosphate at pH 7.4, 0.1 mM DTNB, and 0.2 mM butyryl-CoA, and the reaction was started by addition of 2 to 50 μL cell extract. The enzyme activity of BK is measured in the direction of butyrate to butyryl-phosphate formation at the expense of ATP. The procedure is similar to the assay for acetate kinase previously described Rose et al., J. Biol. Chem. 211:737-756 (1954). […] This assay links conversion of ATP to ADP by acetate kinase to the linked conversion of ADP and phosphoenolpyruvate (PEP) to ATP and pyruvate by pyruvate kinase, followed by the conversion of pyruvate and NADH to lactate and NAD+ by lactate dehydrogenase. […] The reaction was started by adding 2 to 50 μL cell extract, and the reaction was monitored based on the decrease in absorbance at 340 nm indicating NADH oxidation. […]

[3] = biological target: T2, endogenous alcohol dehydrogenase (yjgB) (Escherichia coli, UniProt P27250); conditions: purified protein, in the presence of NADP+; FIG. 85
T2 sequence (P27250 1-339): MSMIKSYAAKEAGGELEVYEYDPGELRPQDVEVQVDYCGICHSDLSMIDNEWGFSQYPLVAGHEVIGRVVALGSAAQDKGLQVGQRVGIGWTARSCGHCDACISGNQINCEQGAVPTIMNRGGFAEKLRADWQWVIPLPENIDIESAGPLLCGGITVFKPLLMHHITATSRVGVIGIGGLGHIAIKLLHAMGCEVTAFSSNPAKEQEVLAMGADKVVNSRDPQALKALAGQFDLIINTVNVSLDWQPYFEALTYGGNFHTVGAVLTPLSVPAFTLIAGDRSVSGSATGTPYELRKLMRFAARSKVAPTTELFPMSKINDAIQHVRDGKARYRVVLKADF
Description: The sample was purified while following the backflux activity.
A fresh sample of 1427 cells from a 2 L LB preparation grown aerobically overnight was lysed using the microfluidizer at 15,000 psi. The sample was then fractionated via ammonium sulfate.
The 60% ammonium sulfate pellet was resuspended in a low salt buffer and dialyzed overnight to remove the residual ammonium sulfate. The sample was loaded onto a 5 ml Q-sepharose column (strong anion exchange) and eluted via a slow increasing salt gradient.
The peak backflux activity from anion exchange was pooled and concentrated to allow for application to a S200 sephacryl size exclusion column.
The peak with the highest backflux activity from the size exclusion column was pooled and loaded on a phenyl sepharose column (hydrophobic interaction column). The ionic strength of the sample was increased to facilitate binding to the resin.

## O=C(O)CCC(=O)C(=O)O [2-Oxoglutarate]
[1]
  activity relative to other branched-chain substrates: 5%

B1: PTB: phosphotransbutyrylase from C. acetobutylicum (gene 0020) (protein, UniProt P58255 1-301, looked up)
Phosphate butyryltransferase: MIKSFNEIIMKVKSKEMKKVAVAVAQDEPVLEAVRDAKKNGIADAILVGDHDEIVSIALKIGMDVNDFEIVNEPNVKKAALKAVELVSTGKADMVMKGLVNTATFLRSVLNKEVGLRTGKTMSHVAVFETEKFDRLLFLTDVAFNTYPELKEKIDIVNNSVKVAHAIGIENPKVAPICAVEVINPKMPSTLDAAMLSKMSDRGQIKGCVVDGPLALDIALSEEAAHHKGVTGEVAGKADIFLMPNIETGNVMYKTLTYTTDSKNGGILVGTSAPVVLTSRADSHETKMNSIALAALVAGNK
[2]
  specific activity of PTB: approximately 5 U/mg

B2: yjgB: E. coli alcohol dehydrogenase yjgB, cloned with a streptavidin tag and purified (protein, UniProt P27250 1-339, looked up)
Aldehyde reductase Ahr: MSMIKSYAAKEAGGELEVYEYDPGELRPQDVEVQVDYCGICHSDLSMIDNEWGFSQYPLVAGHEVIGRVVALGSAAQDKGLQVGQRVGIGWTARSCGHCDACISGNQINCEQGAVPTIMNRGGFAEKLRADWQWVIPLPENIDIESAGPLLCGGITVFKPLLMHHITATSRVGVIGIGGLGHIAIKLLHAMGCEVTAFSSNPAKEQEVLAMGADKVVNSRDPQALKALAGQFDLIINTVNVSLDWQPYFEALTYGGNFHTVGAVLTPLSVPAFTLIAGDRSVSGSATGTPYELRKLMRFAARSKVAPTTELFPMSKINDAIQHVRDGKARYRVVLKADF
modifications: streptavidin tag
[3]
  activity with BDO as a substrate: robust activity was confirmed
